{"source": "patent US20050272077", "proteins": {"B1": {"name": "55 kD JNK2 protein kinase (protein)", "chain": "MSDSKCDSQFYSVQVADSTFTVLKRYQQLKPIGSGAQGIVCAAFDTVLGINVAVKKLSRPFQNQTHAKRAYRELVLLKCVNHKNIISLLNVFTPQKTLEEFQDVYLVMELMDANLCQVIHMELDHERMSYLLYQMLCGIKHLHSAGIIHRDLKPSNIVVKSDCTLKILDFGLARTACTNFMMTPYVVTRYYRAPEVILGMGYKENVDIWSVGCIMGELVKGCVIFQGTDHIDQWNKVIEQLGTPSAEFMKKLQPTVRNYVENRPKYPGIKFEELFPDWIFPSESERDKIKTSQARDLLSKMLVIDPDKRISVDEALRHPYITVWYDPAEAEAPPPQIYDAQLEEREHAIEEWKELIYKEVMDWEERSKNGVVKDQPSDAAVSSNATPSQSSSINDISSMSTEQTLASDTDSSLDASTGPLEGCR"}, "B2": {"name": "MKK6 (protein)", "chain": "MSQSKGKKRNPGLKIPKEAFEQPQTSSTPPRDLDSKACISIGNQNFEVKADDLEPIMELGRGAYGVVEKMRHVPSGQIMAVKRIRATVNSQEQKRLLMDLDISMRTVDCPFTVTFYGALFREGDVWICMELMDTSLDKFYKQVIDKGQTIPEDILGKIAVSIVKALEHLHSKLSVIHRDVKPSNVLINALGQVKMCDFGISGYLVDSVAKTIDAGCKPYMAPERINPELNQKGYSVKSDIWSLGITMIELAILRFPYDSWGTPFQQLKQVVEEPSPQLPADKFSAEFVDFTSQCLKKNSKERPTYPELMQHPFFTLHESKGTDVASFVKLILGD"}, "B3": {"name": "Flag epitope-tagged JNK1 (protein)", "chain": "SRSKRDNNFYSVEIGDSTFTVLKRYQNLKPIGSGAQGIVCAAYDAILERNVAIKKLSRPFQNQTHAKRAYRELVLMKCVNHKNIIGLLNVFTPQKSLEEFQDVYIVMELMDANLCQVIQMELDHERMSYLLYQMLCGIKHLHSAGIIHRDLKPSNIVVKSDCTLKILDFGLARTAGTSFMMTPYVVTRYYRAPEVILGMGYKENVDLWSVGCIMGEMVCHKILFPGRDYIDQWNKVIEQLGTPCPEFMKKLQPTVRTYVENRPKYAGYSFEKLFPDVLFPADSEHNKLKASQARDLLSKMLVIDASKRISVDEALQHPYINVWYDPSEAEAPPPKIPDKQLDEREHTIEEWKELIYKEVMDLEERTKNGVIRGQPSPLAQVQQ"}, "B4": {"name": "GST-JNK1 (protein)", "chain": "MSRSKRDNNFYSVEIGDSTFTVLKRYQNLKPIGSGAQGIVCAAYDAILERNVAIKKLSRPFQNQTHAKRAYRELVLMKCVNHKNIIGLLNVFTPQKSLEEFQDVYIVMELMDANLCQVIQMELDHERMSYLLYQMLCGIKHLHSAGIIHRDLKPSNIVVKSDCTLKILDFGLARTAGTSFMMTPYVVTRYYRAPEVILGMGYKENVDLWSVGCIMGEMVCHKILFPGRDYIDQWNKVIEQLGTPCPEFMKKLQPTVRTYVENRPKYAGYSFEKLFPDVLFPADSEHNKLKASQARDLLSKMLVIDASKRISVDEALQHPYINVWYDPSEAEAPPPKIPDKQLDEREHTIEEWKELIYKEVMDLEERTKNGVIRGQPSPLAQVQQ"}, "B5": {"name": "JNK1 from UV-irradiated cells (protein)", "chain": "B4 chain"}, "B6": {"name": "GST-MKK4 (protein)", "chain": "MQGKRKALKLNFANPPFKSTARFTLNPNPTGVQNPHIERLRTHSIESSGKLKISPEQHWDFTAEDLKDLGEIGRGAYGSVNKMVHKPSGQIMAVKRIRSTVDEKEQKQLLMDLDVVMRSSDCPYIVQFYGALFREGDCWICMELMSTSFDKFYKYVYSVLDDVIPEEILGKITLATVKALNHLKENLKIIHRDIKPSNILLDRSGNIKLCDFGISGQLVDSIAKTRDAGCRPYMAPERIDPSASRQGYDVRSDVWSLGITLYELATGRFPYPKWNSVFDQLTQVVKGDPPQLSNSEEREFSPSFINFVNLCLTKDESKRPKYKELLKHPFILMYEERAVEVACYVCKILDQMPATPSSPMYVD"}}, "key": {"[1]": {"molecular_target": "T1, GST-ATF2 fusion protein (residues 1-505), P15336", "T1 chain": "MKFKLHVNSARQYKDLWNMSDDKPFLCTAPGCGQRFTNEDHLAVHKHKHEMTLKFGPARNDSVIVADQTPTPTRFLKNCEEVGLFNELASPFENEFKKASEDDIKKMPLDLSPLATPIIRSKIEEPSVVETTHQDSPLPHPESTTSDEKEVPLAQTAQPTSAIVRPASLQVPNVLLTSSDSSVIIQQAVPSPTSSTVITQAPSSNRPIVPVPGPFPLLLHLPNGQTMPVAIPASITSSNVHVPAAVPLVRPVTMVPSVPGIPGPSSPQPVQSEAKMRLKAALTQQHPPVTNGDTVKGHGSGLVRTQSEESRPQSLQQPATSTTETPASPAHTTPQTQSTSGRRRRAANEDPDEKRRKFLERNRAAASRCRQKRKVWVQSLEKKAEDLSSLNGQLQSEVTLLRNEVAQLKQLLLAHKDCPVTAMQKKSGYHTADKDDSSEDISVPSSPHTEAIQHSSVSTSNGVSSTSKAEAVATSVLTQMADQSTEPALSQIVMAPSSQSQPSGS"}, "[2]": {"molecular_target": "GST-p38 MAP kinase (wild-type, TGY), Q16539", "sequence (Q16539 whole entry)": "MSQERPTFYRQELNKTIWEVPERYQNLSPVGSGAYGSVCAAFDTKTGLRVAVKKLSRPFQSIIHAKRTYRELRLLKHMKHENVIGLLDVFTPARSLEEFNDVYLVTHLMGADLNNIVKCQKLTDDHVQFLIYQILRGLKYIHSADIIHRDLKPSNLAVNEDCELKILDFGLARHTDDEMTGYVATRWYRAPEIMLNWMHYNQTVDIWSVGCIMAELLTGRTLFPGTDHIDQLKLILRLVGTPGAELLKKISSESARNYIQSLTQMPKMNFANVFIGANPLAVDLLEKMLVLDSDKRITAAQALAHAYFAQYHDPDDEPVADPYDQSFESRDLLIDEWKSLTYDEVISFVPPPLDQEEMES"}, "[3]": {"molecular_target": "GST-ATF2 fusion protein (residues 1-109, activation domain) [GST: P08515]"}, "[4]": {"molecular_target": "T2, GST-ATF2 fusion protein (residues 1-349), P15336", "T2 chain": "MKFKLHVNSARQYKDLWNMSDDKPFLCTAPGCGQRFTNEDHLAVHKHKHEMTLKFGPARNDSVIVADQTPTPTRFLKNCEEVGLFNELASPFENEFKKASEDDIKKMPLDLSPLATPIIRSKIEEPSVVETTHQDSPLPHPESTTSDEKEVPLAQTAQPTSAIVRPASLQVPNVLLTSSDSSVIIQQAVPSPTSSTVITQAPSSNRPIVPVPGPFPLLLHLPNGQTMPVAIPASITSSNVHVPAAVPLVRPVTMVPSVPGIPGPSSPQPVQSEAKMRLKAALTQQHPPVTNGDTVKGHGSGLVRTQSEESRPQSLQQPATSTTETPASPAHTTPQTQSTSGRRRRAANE"}, "[5]": {"molecular_target": "T3, GST-ATF2 fusion protein (residues 20-109), P15336", "T3 chain": "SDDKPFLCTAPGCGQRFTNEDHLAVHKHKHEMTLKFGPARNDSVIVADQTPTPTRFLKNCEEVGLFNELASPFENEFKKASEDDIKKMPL"}, "[6]": {"molecular_target": "T4, GST-ATF2 fusion protein (residues 40-109), P15336", "T4 chain": "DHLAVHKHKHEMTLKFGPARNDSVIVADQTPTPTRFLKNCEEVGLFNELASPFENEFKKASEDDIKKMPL"}, "[7]": {"molecular_target": "T5, GST-ATF2 fusion protein (residues 60-109), P15336", "T5 chain": "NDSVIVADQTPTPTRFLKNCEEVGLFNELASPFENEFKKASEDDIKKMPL"}, "GST-MKK4, P45985": {"molecular_target": "T6, GST-MKK4, P45985", "T6 chain": "B6 chain"}, "[8]": {"molecular_target": "T7, mutated ATF2 (Ala^69.71), P15336", "T7 chain": "T1 chain with T69A, T71A"}, "[9]": {"molecular_target": "mutated GST-JNK1 (Ala^183, Phe^185), P45983"}}, "note": "Positions count from the first letter of the chain named."}
{"protein": "B1", "values": [{"measurement": "in-gel protein kinase assay with GST-ATF2 (residues 1-505) polymerized in the gel", "setting": "[1]", "value": "46 kD and 55 kD protein kinases that phosphorylate ATF2 in extracts prepared from UV-irradiated cells. The 46 kD and 55 kD protein kinases were identified as JNK1 and JNK2, respectively"}]}
{"protein": "B2", "values": [{"measurement": "phosphorylation of the substrate protein (in vitro kinase assay)", "setting": "GST-ERK2 [GST: P08515]", "value": "shown to phosphorylate p38 MAP kinase on Thr^180 and Tyr^182, but not JNK1 or ERK2"}, {"measurement": "phosphorylation of the substrate protein (in vitro kinase assay)", "setting": "GST-JNK1, P45983", "value": "shown to phosphorylate p38 MAP kinase on Thr^180 and Tyr^182, but not JNK1 or ERK2"}, {"measurement": "phosphorylation of the substrate protein (in vitro kinase assay)", "setting": "[2]", "value": "shown to phosphorylate p38 MAP kinase on Thr^180 and Tyr^182, but not JNK1 or ERK2"}, {"measurement": "specific activity relative to MKK3", "setting": "[2]", "value": "The specific activity of MKK6 was approximately 300-fold greater than that of MKK3"}]}
{"protein": "B3", "values": [{"measurement": "phosphorylation of GST-ATF2 (residues 1 to 109) (immunocomplex kinase assay, autoradiography)", "setting": "[3]", "value": "JNK1-transfected cells, but not mock-transfected cells, phosphorylated ATF2. JNK1 phosphorylation of ATF2 was greater in cells exposed to UV radiation"}, {"measurement": "phosphorylation of the GST-ATF2 fusion protein (immunocomplex kinase assay)", "setting": "[3]", "value": "JNK1 phosphorylates GST-ATF2 fusion proteins containing residues 1-505, 1-349, 1-109, 20-109, and 40-109, but not 60-109"}, {"measurement": "phosphorylation of the GST-ATF2 fusion protein (immunocomplex kinase assay)", "setting": "[4]", "value": "JNK1 phosphorylates GST-ATF2 fusion proteins containing residues 1-505, 1-349, 1-109, 20-109, and 40-109, but not 60-109"}, {"measurement": "phosphorylation of the GST-ATF2 fusion protein (immunocomplex kinase assay)", "setting": "[1]", "value": "JNK1 phosphorylates GST-ATF2 fusion proteins containing residues 1-505, 1-349, 1-109, 20-109, and 40-109, but not 60-109"}, {"measurement": "phosphorylation of the GST-ATF2 fusion protein (immunocomplex kinase assay)", "setting": "[5]", "value": "JNK1 phosphorylates GST-ATF2 fusion proteins containing residues 1-505, 1-349, 1-109, 20-109, and 40-109, but not 60-109"}, {"measurement": "phosphorylation of the GST-ATF2 fusion protein (immunocomplex kinase assay)", "setting": "[6]", "value": "JNK1 phosphorylates GST-ATF2 fusion proteins containing residues 1-505, 1-349, 1-109, 20-109, and 40-109, but not 60-109"}, {"measurement": "phosphorylation of the GST-ATF2 fusion protein (immunocomplex kinase assay)", "setting": "[7]", "value": "JNK1 phosphorylates GST-ATF2 fusion proteins containing residues 1-505, 1-349, 1-109, 20-109, and 40-109, but not 60-109"}]}
{"protein": "B4", "values": [{"measurement": "phosphorylation of MKK4 (in vitro kinase assay, [γ-32P]ATP)", "setting": "GST-MKK4, P45985", "value": "as was MKK4 incubated with JNK1 and p38"}]}
{"protein": "B5", "values": [{"measurement": "in-gel protein kinase assay with GST-ATF2 (residues 1-505) polymerized in the gel", "setting": "[1]", "value": "46 kD and 55 kD protein kinases that phosphorylate ATF2 in extracts prepared from UV-irradiated cells. The 46 kD and 55 kD protein kinases were identified as JNK1 and JNK2, respectively"}, {"measurement": "phosphorylation of ATF2 by JNK1 (phosphopeptide mapping and mutational analysis)", "setting": "[8]", "value": "Phosphorylation of mutated ATF2 was not observed"}]}
{"protein": "B6", "values": [{"measurement": "phosphorylation of ATF2 in a coupled kinase assay (activation of JNK1)", "setting": "GST-JNK1, P45983", "value": "ATF2 was phosphorylated in the presence of MKK4 and wild-type JNK1"}, {"measurement": "phosphorylation of the substrate protein (in vitro kinase assay, [γ-32P]ATP)", "setting": "GST-JNK1, P45983", "value": "JNK1 and p38 were phosphorylated"}, {"measurement": "phosphorylation of the substrate protein (in vitro kinase assay, [γ-32P]ATP)", "setting": "[2]", "value": "JNK1 and p38 were phosphorylated"}, {"measurement": "phosphorylation of ATF2 in a coupled kinase assay (activation of JNK1)", "setting": "[9]", "value": "MKK4 incubated with wild-type JNK1, but not mutated JNK1, resulted in increased phosphorylation of ATF2"}]}
